# Values of other authors, collected in publication PMC9836287.
# Target: CEP250 (Homo sapiens) (UniProt Q9BV73)
# Sequence of UniProt Q9BV73 (Q9BV73 whole entry): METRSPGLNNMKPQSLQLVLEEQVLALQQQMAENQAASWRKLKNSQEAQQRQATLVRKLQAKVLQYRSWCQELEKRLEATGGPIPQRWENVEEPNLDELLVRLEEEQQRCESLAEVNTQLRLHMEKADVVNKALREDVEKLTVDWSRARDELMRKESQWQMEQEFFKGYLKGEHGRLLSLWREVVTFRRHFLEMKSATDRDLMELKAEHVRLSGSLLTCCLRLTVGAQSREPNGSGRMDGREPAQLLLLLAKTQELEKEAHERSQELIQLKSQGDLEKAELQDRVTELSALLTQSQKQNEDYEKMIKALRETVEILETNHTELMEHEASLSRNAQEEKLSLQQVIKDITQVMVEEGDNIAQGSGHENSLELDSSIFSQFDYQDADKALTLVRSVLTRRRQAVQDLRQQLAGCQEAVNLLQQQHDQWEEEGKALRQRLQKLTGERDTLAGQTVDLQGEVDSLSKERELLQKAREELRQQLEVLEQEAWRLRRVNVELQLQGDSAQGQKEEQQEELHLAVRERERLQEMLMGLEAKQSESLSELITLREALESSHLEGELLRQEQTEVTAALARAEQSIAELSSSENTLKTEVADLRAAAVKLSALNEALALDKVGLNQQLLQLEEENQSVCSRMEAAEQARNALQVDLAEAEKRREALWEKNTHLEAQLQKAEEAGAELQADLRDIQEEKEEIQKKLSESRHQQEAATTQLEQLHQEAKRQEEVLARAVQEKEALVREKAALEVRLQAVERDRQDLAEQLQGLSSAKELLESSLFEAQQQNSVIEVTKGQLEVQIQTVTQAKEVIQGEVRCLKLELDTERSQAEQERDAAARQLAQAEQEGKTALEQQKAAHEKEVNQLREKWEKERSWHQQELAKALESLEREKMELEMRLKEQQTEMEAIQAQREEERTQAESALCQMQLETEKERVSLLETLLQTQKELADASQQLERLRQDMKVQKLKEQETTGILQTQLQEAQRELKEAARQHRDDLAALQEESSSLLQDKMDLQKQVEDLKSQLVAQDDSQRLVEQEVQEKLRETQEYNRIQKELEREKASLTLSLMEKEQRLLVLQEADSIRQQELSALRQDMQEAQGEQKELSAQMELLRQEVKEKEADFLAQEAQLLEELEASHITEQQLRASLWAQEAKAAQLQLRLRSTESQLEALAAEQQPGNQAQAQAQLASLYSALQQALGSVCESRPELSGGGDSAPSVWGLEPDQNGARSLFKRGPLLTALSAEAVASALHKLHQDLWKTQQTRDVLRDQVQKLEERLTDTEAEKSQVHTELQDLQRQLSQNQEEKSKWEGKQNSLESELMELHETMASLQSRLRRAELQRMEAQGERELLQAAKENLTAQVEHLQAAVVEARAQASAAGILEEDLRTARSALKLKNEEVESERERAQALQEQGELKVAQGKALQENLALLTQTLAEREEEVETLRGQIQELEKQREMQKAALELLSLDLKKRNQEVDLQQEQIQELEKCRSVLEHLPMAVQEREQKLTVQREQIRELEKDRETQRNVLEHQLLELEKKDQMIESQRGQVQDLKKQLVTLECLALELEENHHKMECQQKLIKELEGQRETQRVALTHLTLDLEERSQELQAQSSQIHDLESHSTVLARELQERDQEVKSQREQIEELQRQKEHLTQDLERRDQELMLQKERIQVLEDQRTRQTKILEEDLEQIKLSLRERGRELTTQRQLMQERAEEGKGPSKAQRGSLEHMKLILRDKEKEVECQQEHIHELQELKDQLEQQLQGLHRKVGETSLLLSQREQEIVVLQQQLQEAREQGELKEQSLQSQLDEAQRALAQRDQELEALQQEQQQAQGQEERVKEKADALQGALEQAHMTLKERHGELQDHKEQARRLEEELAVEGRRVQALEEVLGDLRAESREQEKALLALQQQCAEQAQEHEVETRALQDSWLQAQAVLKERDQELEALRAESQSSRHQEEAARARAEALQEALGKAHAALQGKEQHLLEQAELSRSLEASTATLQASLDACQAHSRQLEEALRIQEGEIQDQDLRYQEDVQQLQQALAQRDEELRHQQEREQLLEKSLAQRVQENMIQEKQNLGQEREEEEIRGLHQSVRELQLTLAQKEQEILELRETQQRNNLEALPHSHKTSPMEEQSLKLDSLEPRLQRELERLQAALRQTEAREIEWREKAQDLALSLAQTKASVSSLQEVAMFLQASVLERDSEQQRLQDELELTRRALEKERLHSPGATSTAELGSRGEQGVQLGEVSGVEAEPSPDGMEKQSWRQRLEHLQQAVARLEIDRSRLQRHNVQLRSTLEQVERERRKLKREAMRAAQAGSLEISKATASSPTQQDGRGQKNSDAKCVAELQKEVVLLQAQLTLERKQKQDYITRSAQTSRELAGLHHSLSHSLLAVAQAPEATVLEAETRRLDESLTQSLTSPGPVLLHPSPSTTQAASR
substance,measurement,value
FKBP12 (from UniProt P62942),Kd,40 nM
